Test results reported in publication PMC6726503 (2019).

Molecular target: T1, TGF-β2 (Homo sapiens, UniProt P61812)
T1 chain: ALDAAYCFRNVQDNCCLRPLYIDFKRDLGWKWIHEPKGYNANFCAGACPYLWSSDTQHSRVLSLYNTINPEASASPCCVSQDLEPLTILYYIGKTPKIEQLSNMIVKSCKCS
Test: SPR

B1: betaglycan O-ZP (protein)
chain: GPEPSTRCELSPINASHPVQALMESFTVLSGCASRGTTGLPREVHVLNLRSTDQGPGQRQREVTLHLNPIASVHTHHKPIVFLLNSPQPLVWHLKTERLAAGVPRLFLVSEGSVVQFPSGNFSLTAETEERNFPQENEHLLRWAQKEYGAVTSFTELKIARNIYIKVGEDQVFPPTCNIGKNFLSLNYLAEYLQPKAAEGCVLPSQPHEKEVHIIELITPSSNPYSAFQVDIIVDIRPAQEDPEVVKNLVLILKCKKSVNWVIKSFDVKGNLKVIAPNSIGFGKESERSMTMTKLVRDDIPSTQENLMKWALDNGYRPVTSYTMAPVANRFHLRLENNEEMRDEEVHTIPPELRILLDPDHPPALDNPLFPGEGSPNGGLPFPFPDIPRRGWKEGEDRIPRPKQPIVPSVQLLPDHREPEEVQGGVDIALSVKCDHEKMVVAVDKDSFQTNGYSGMELTLLDPSCKAKMNGTHFVLESPLNGCGTRHRRSTPDGVVYYNSIVVQAPSPGDSSGWPDGYEDLESGDNGFPGDGDEGETAPLSRAGVVVFNCSLRQLRNPSGFQGQLDGNATFNMELYNTDLFLVPSPGVFSVAENEHVYVEVSVTKADQDLGFAIQTCFLSPYSNPDRMSDYTIIENICPKDDSVKFYSSKRVHFPIPHAEVDKKRFSFLFKSVFNTSLLFLHCELTLCSRKKGSLKLPRCVTPDDACTSLDATMIWTMMQNKKTFTKPLAVVLQVDYKENVPSTKDSSPIPPPPPQIFHGLDTL
  Kd: 0.5 nM

B2: betaglycan O (protein)
chain: GPEPSTRCELSPINASHPVQALMESFTVLSGCASRGTTGLPREVHVLNLRSTDQGPGQRQREVTLHLNPIASVHTHHKPIVFLLNSPQPLVWHLKTERLAAGVPRLFLVSEGSVVQFPSGNFSLTAETEERNFPQENEHLLRWAQKEYGAVTSFTELKIARNIYIKVGEDQVFPPTCNIGKNFLSLNYLAEYLQPKAAEGCVLPSQPHEKEVHIIELITPSSNPYSAFQVDIIVDIRPAQEDPEVVKNLVLILKCKKSVNWVIKSFDVKGNLKVIAPNSIGFGKESERSMTMTKLVRDDIPSTQENLMKWALDNGYRPVTSYTMAPVANRFHLRLENNEEMRDEEVHTIPPELRILLDPDHPPALDNPLFPGEGSPNGGLPFPFPD
  Kd: 10 nM
